# Measurements published in article PMC8229532 (Structure (London, England : 1993), 2010).
# B1: Phd (prevents host death) antitoxin of bacteriophage P1 (natural protein, UniProt Q06253 1-73, looked up)
# chain: MQSINFRTARGNLSEVMNNVEAGEEVEITRRGREPAVIASKATFEAYKKAALDAEFASLFDTLDSTNKELVNR
# modifications: selenomethionine (expressed in MJ9 minimal medium supplemented with selenomethionine)
# Target: the molecule itself
# Test: crystal structure
protein,measurement,value
B1,binding result,binds
